How the values were obtained:
[1] = target: T1, human DNMT1 RFTS domain, residues 351–600 (human, UniProt P26358 351-600); experiment: ITC
T1 chain: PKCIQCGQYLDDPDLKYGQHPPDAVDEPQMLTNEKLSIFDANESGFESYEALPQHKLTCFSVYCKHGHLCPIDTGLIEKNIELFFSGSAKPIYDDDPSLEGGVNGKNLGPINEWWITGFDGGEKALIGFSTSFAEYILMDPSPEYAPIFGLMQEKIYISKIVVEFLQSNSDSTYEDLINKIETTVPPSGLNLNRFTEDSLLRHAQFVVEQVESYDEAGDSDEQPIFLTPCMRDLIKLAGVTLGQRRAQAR

[2] = target: T2, PHD finger of human UHRF1 (residues 299–366) (human, UniProt Q96T88 299-366); experiment: ITC
T2 chain: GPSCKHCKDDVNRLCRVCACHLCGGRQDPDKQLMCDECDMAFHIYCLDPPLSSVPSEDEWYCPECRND

B1: PAF15_(2-30) unmodified (peptide)
chain: VRTKADSVPGTYRKVVAARAPRKVLGSST
modifications: unmodified (no ubiquitin); taken as wild-type K15/K24, since the text describes K15C/K24C only for preparing the ubiquitylated analogs
B1 showed a Kd [1] of 6 µM.

B2: hPAF15_(2-11)-K5A peptide (peptide)
peptide: VRTAADSVPG
Work on B2 yielded a Kd [2] of 5.7 µM.
